Earlier results in article PMC8811192.
Where two headings read alike, the source gives them in different places.

Assays:
[1] = target: OrxA (Homo sapiens) (UniProt O43612)
[2] = target: OrxA (Homo sapiens) (UniProt O43612); remark: listed apart in the source
[3] = target: OrxB (Homo sapiens) (UniProt O43612)

Kd [1]	Kd [2]	Kd [3]	Substance
25 nM	–	–	OrxR1 (from UniProt O43613)
–	40 nM	40 nM	OrxR2 (from UniProt O43614)
